Consider 2 molecules from US20210403582A1 (JACOBIO PHARMACEUTICALS, published 2021).

Like-named read-outs stand apart in the source and are kept apart here.

Experiment [1] deals with human IL-6 (human, UniProt P05231 30-212, limits assumed). Briefly: ELISA, human IL-6 coated at 1 µg/mL, A450. As to the method: (§1) The human LIF, human IL-6, human OSM, human CNTF (purchased from Sino biological) were coated on the enzyme label plate at a concentration of 1 μg/mL separately, and the anti-human LIF antibodies 38E10E1C11, P36-033 and 5D8 at different concentrations were added separately and incubated for 1 h at room temperature. Then the plates were washed four times with PBST and incubated with HRP-labeled goat anti-mouse FC secondary antibody for 1 h at room temperature. Then the plates were washed four times with PBST and added with TMB colored solution for color development at room temperature for 10 minutes. The absorption value at 450 nm is quantitated by the enzyme-labeling measuring instrument, and the data was analyzed and plotted using Origin pro 9 software.
Sequence of human IL-6 (P05231 30-212 limits assumed): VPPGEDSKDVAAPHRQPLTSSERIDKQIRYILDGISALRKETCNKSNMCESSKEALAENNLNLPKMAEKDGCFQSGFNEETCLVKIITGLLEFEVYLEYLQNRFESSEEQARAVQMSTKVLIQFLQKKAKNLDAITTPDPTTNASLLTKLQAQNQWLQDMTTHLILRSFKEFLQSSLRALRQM

The target of experiment [2] is T1, human CNTF (human, UniProt P26441 1-200, limits assumed).
T1 sequence (looked up): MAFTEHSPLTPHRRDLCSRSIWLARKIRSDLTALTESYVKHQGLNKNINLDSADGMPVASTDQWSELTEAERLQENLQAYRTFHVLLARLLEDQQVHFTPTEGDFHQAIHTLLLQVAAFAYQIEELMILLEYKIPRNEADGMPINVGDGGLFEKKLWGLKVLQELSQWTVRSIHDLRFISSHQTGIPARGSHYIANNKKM
Briefly: ELISA, human CNTF coated at 1 µg/mL, A450. As to the method: as §1
A general note: In an ELISA, binding on a coated surface is turned into a signal by an enzyme label.

Experiment [3] addresses T2, recombinant mouse LIF protein (mouse, UniProt P09056 24-203). The experiment in a line: ELISA, mouse LIF coated at 1 µg/mL, A450. The procedure: (§2) The recombinant mouse LIF protein (purchased from ACRO Biosystems) was diluted to 1 μg/mL, and was coated on the enzyme label plate, 100 μL of protein was added into every well, and incubated overnight in 4° C. The enzyme label plates were taken out next day, and the liquid was discarded, and were washed with PBST three times and blocked with 2% BSA in PBS for 1 h at room temperature, then washed with PBST three times, and added anti-human LIF antibodies 38E10E1C11, 5D8 and P36-033 at different concentrations and incubated for 1 h at room temperature. The liquid was discarded, and the plates were washed with PBST four times. The plates were added with HRP-labeled goat anti-mouse Fab antibody or goat anti-human FC antibody and incubated for 1 h at room temperature. Then the liquid was discarded, and the plates were washed four times with PBST and incubated with TMB colored solution in 10 minutes at room temperature. Stop color development by adding 2 mol/L H₂SO₄, and the absorption value at 450 nm is quantitated using an automated plate photometer, and the results were shown in FIG. 2.

For experiment [4], the target named is T3, human LIF protein (human, UniProt P15018 23-202).
T3 construct: Bought recombinant protein (Sino Biological / Yiqiao Shenzhou 14890-HNAH) in most assays; also called recombinant human LIF protein; rhLIF
T3 sequence (P15018 23-202 limits assumed): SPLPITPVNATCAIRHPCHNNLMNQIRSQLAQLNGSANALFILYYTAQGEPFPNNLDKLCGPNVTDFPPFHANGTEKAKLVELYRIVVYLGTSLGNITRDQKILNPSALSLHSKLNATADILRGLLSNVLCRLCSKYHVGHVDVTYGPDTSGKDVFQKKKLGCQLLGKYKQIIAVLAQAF
Briefly: competition ELISA: human LIF coated at 1 µg/mL, GP130-Fc 20 µg/mL added together with the antibody, A450. The procedure:
The recombinant human LIF protein was coated on the enzyme label plates at a concentration of 1 μg/mL, GP130 protein (expressed fusedly with human FC) at a concentration of 20 μg/mL was added (50 μL/well), and the anti-human LIF antibodies P36-033 and 38E10E1C11 at different concentrations simultaneously were added separately (50 μL/well), and incubated for 2 h at room temperature. At the same time, the control wells added with antibodies and without GP130 protein were set. Incubated for 2 h at room temperature. After washed four times with PBST, incubated with HRP-labeled goat anti-mouse FC secondary antibody for 1 h at room temperature. Then the plates were washed four times with PBST and added with TMB coloured solution in for 10 minutes. The absorption value at 450 nm is quantitated using an enzyme-labelling measuring instrument, and the data was analyzed and plotted using Origin pro 9 software.

Experiment [5] has as its target T3, human LIF protein. Briefly: ELISA, human LIF coated at 1 µg/mL, A450. The procedure: as §2, with “recombinant human” for “recombinant mouse”, “protein” for “protein (purchased from ACRO Biosystems)”, “μg/mL,” for “μg/mL, and”, “of the” for “of”, “FIG. 1.” for “FIG. 2.”
Experiment [6] concerns the target T4, human OSM (human, UniProt P13725 26-221, limits assumed).
T4 sequence (looked up): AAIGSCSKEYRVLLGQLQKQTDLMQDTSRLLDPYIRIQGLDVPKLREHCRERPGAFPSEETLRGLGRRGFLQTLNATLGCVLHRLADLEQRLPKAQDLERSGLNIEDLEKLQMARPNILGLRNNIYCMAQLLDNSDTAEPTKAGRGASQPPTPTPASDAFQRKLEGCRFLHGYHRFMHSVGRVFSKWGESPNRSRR
Briefly: ELISA, human OSM coated at 1 µg/mL, A450. As to the method: as §1

In experiment [7] the target is T3, human LIF protein. Briefly: competition ELISA: human LIF coated at 1 µg/mL, GP130-Fc 12 µg/mL added together with the antibody, HRP anti-human Fc, A450.
Experiment [8] has as its target T4, human OSM. The experiment in a line: ELISA, human OSM coated at 1 µg/mL, A450, bar chart of eight antibody concentrations. As to the method:
as §1

In experiment [9] the target is T3, human LIF protein. The experiment in a line: ELISA, human LIF coated at 1 µg/mL, A450. As to the method:
as §2, with “recombinant human” for “recombinant mouse”, “protein” for “protein (purchased from ACRO Biosystems)”, “μg/mL,” for “μg/mL, and”, “of the” for “of”, “FIG. 1.” for “FIG. 2.”
The source holds these as a separate data set.

Experiment [10] addresses T1, human CNTF. Briefly: ELISA, human CNTF coated at 1 µg/mL, A450, bar chart of eight antibody concentrations. The procedure:
as §1

In experiment [11] the target is T2, recombinant mouse LIF protein. Briefly: ELISA, mouse LIF coated at 1 µg/mL, A450. The procedure:
as §2
This is another data set of the same source.

B1: P36-033 antibody (antibody, mouse IgG1, kappa, V domains shown)
VH: EVMLVESGGGLVQPGGSRRLSCAASGFTFSSYPMFWVRQTPEKRMEWVAYISNGGDSTYYPDTVKGRFTVSRDNAKNTLYLQMSSLKSVDTAIYYCVRPSARYDEWFAYWGQGTLVTVSA
VL: DIVMTQSHKFMSTSVGDRVSITCKASQDVSNAVAWYQQKPGQSPRLLIYWASFRHTGVPDRFTGSGSGTEYTLTISRVQAEDLALYYCQQHYNTPYTFGGGTRLEIKR
notes: From a phage display library of immunised mice; full-length chains with mouse constant regions; also called P36-033 mAb
A word on the EC50 (read off the curve): it is the concentration giving half of the maximal effect. For B1, the binding result in [1] was “no binding (tested: 25 ug/ml)”; in experiment [2] it was “no binding (tested: 25 ug/ml)”; in experiment [3], “binds”; in [6], “no binding (tested: 25 ug/ml)”. Moreover, the “IC50 (read off the curve)” value in experiment [4] and in experiment [7] was around 0.1 µg/mL throughout. In addition, the “EC50 (read off the curve)” value in [5] was around 0.05 µg/mL.

B2: 5D8 antibody (positive control) (antibody, human IgG1, kappa, V domains shown)
VH: QVQLQESGGGLVKPGGSLRLSCAASGFTFSHAWMHWVRQAPGKGLEWVGQIKAKSDDYATYYAESVKGRFTISRDDSKNTLYLQMNSLKTEDTAVYYCTCWEWDLDFWGQGTMVTVSS
VL: DIVMTQTPLSSPVTLGQPASISCRSSQSLLDSDGHTYLNWLQQRPGQPPRLLIYSVSNLESGVPDRFSGSGAGTDFTLKISRVEAEDVGVYYCMQATHAPPYTFGQGTKLEIKR
For the molecule B2, the binding result in [8] and in [10] was “binds” in each case. Also, the “EC50 (read off the curve)” value was around 0.4 µg/mL in experiment [3], around 0.2 µg/mL in [9], around 0.8 µg/mL in experiment [5] and around 0.3 µg/mL in [11].
